Reference: paper PMC3008712

Legend:
[1] = molecular target: T1, recombinant human γD-crystallin (human), P07320; assay: reducing SDS-PAGE; 1 mg/ml HGDC in 5 mM sodium phosphate pH 7.0, UV-C irradiated (254 nm, 1,850 μW/cm^2) for 10-60 min; 15% gel, sample buffer with β-mercaptoethanol; band intensities by Image-J; details: remark: other sources report otherwise
T1 chain: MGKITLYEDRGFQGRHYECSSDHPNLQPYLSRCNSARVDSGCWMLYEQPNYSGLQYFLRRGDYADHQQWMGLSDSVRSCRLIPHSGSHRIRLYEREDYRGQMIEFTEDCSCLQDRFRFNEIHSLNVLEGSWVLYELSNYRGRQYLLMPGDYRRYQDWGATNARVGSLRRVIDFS

[2] = molecular target: T1, recombinant human γD-crystallin …; assay: non-reducing SDS-PAGE; 1 mg/ml HGDC in 5 mM sodium phosphate pH 7.0, UV-C irradiated (254 nm, 1,850 μW/cm^2) for 10-60 min; 15% gel, sample buffer without β-mercaptoethanol; band intensities by Image-J; details: remark: other sources report otherwise

HGDC polymerization (%) with β-ME, 10 min UV-C [1]: 6.66% | HGDC polymerization (%) with β-ME, 20 min UV-C [1]: 15% | HGDC polymerization (%) with β-ME, 30 min UV-C [1]: 25.4% | HGDC polymerization (%) with β-ME, 40 min UV-C [1]: 29.8% | HGDC polymerization (%) with β-ME, 50 min UV-C [1]: 30.1% | HGDC polymerization (%) with β-ME, 60 min UV-C [1]: 31.5% | HGDC polymerization (%) without β-ME, 10 min UV-C [2]: 7.31% | HGDC polymerization (%) without β-ME, 20 min UV-C [2]: 17.6% | HGDC polymerization (%) without β-ME, 30 min UV-C [2]: 30.6% | HGDC polymerization (%) without β-ME, 40 min UV-C [2]: 42% | HGDC polymerization (%) without β-ME, 50 min UV-C [2]: 51.3% | HGDC polymerization (%) without β-ME, 60 min UV-C [2]: 53.6%
B1: recombinant human γD-crystallin, P07320 1-174 (natural protein)
chain: T1 chain
